Measured values published in a protein production outcome set (Wang et al. 2014).

Test: label from the status in PepcDB records
In the case of “MVSDADASTSSSSIDIMPSANIQNDVPEPSVHTSHRRTRKPAYLQDYYCHSVASLTIHDISQFLSYEKVSPLYHSFLVCIAKAKEPSTYNEAKEFLVWCGAMDDEIGAMETTHTWEICTLPPNKKPIGCKWVYKIKYNSDGTIERYKARLVAKGYTQQEGIDFIETFSPVCKLTSVKLILAISAIYNFTLHQLDISNAFLNGDLDEEIYMKLPPGYAARQGDSLPPNAVCYLKKSIYGLKQASRQWFLKFSVTLIGFGFVQSHSDHTYFLKITATLFLCVLVYVDDIIICSNNDAAVDELKSQLKSCFKLRDLGPLKYFLGLEIARSAAGINICQRKYALDLLDETGLLGCKPSSVPMDPSVTFSAHSGGDFVDAKAYRRLIGRLMYLQITRLDISFAVNKLSQFSEAPRLAHQQAVMKILHYIKGTVGQGLFYSSQAEMQLQVFSDASFQSCKDTRRSTNGYCMFLGTSLISWKSKKQQVVSKSSAEAEYRALSFATDEMMWLAQFFRELQLPLSKPTLLFCDNTAAIHIATNAVFHERTKHIESDCHSVRERSVYQATLSYSFQAYDEQDGFTEYLSPILRGTIMYIVSMFGLAGLEALICFIFLFLFSFLTSFKASAQNPFYLNHDCPNRTTYSSNSTYSTNLKTLLSSFASRNASYSTGFQNIRAGQTPDRVTGLFLCRGDLSPEVCSNCVAFSVNESLTRCPNQREAVFYYEECILRYSHKNFLSTVTYEGELIMRNPNNISSIQNQRDQFIDLVQSNMNQAANEAANSSRKFSTIKTELTSLQTLYGLVQCTPDLARQDCFSCLTSSINRMMPLFRIGARQFWPSCNSRYELYAFYNETAIGTPSPPPLFPGSTPPLTSPSIPGKSGNSTVLVVAIVVLAVLLFIALVGYCFLAQRTKKTFDTASASEVGDDMATADSLQLDYRTIQTATNDFAESNKIGRGGFGEVYKGTFSNGKEVAVKRLSKNSRQGEAEFKTEVVVVAKLQHRNLVRLLGFSLQGEERILVYEYMPNKSLDCLLFDPTKQTQLDWMQRYNIIGGIARGILYLHQDSRLTIIHRDLKASNILLDADINPKIADFGMARIFGLDQTQDNTSRIVGTYGYMAPEYAMHGQFSMKSDVYSFGVLVLEIISGRKNSSFDESDGAQDLLTHTWRLWTNRTALDLVDPLIANNCQNSEVVRCIHIGLLCVQEDPAKRPTISTVFMMLTSNTVTLPVPRQPGFFIQSSPVKDPTDSDQSTTTKSTPASIDDELITDLYPR”, the protein production is reported as “failed”. For “MVSGKVLKEPASGFMFMDTLDRGVKGYAGGWLVRGKRYNCIVETGAGAAVPLWLAGLKQAGIPLESIRWILLTHVHLDHAGGAGELLRHLPNARIGIHPLGVRHILDPQRLLSHAKVVWEKDFDLLGPMLPAPAERVVELGDGEIIEIDDVRRIKVLYTPGHTSHHVAFFEESTRGVFSGDALGAFFRGKHPFGEYVSMPGVSPPKGDIPAYVQSVERIAKLSPRRIYATHFGLWEPAMPYILSATSQIITISDLCRDVFYGGGGLQDFLSRAATLLASVRQSTRGQVELEKNYFSMAKAVWNYVVAEKGGESSPG”, the protein production was “failed”. With “MVSKRLTGAVALLFLAAGAAGAAGLTVKEQLGKDIFFDTNLSINGNQSCADCHAPEAGWTGPTSEVNAHGAVYEGSIAGRFGNRKPPSSAYATTAPILKYIRQGGGMFVGGNFWDGRATGEKLGNPAADQAQGPFLNPLEQGLPDSACVVHRVCTATYGTAMETLWPGSCAIAWPADVAAACATEGTVVNLDAPNRAASDLAYDYIALAIAAYEGSTESNAFTSKYDAFLAGKAFLTPEERRGLTLFNGKAKCARCHVNTGRAPLFTDYTYDNLGVPRNSENPFYESAFNPLGINWIDQGLGGFLASRIDYSRFATANLGKHKVPTLRNVDKKTSPDFVKAFGHNGYFKSLKEIVHFYNTRDVLPTCAPGSPGEKVTCWPEPELALTMNTTELGNLKLSDAEEDALVAFMKTLTDGYQP” the protein production was “failed”. With “MVSNIDHKAMEALLRGQGCANNLKILLENGEISSVSTEPLIHTILDSFSLALSFMDSPNHPPYHESSSHNMASHMSRRSSKQKLCVAEGLVNYNHDSRTMCPNDGFTWRKYGQKTIKASAHKRCYYRCTYAKDQNCNATKRVQKIKDNPPVYRTTYLGKHVCKAFAVHDDTYSSTMIRFDQVVPEPIMPQLTTIDHQVITVEENSAEHIMNQECDINDYLVDDDPFWASQFPPFPSSDTMFLENISAFD” the protein production was “failed”. For “MVSNSSITFKEFVDYWFEAYASTAVKPSTQKRYRQLLKPALRAIGNKPLNKVKPLDIQNIYIALAGTQSNCTILKLHRLLHEIFKHAQMWEYISDNPVKKVVPPTPEKKVFDLEHHHHHH”, the protein production was “failed”. For “MVSPQGVIVARAIISCGVASKKPFYRDQTMETDFSVHSHKGKGSLMRRKPALRLLCSAALAAALAIGAGASPGFAETKAKPEDKAVTFDPGKVNTFSGAFLAGRNADVDQDYPTAISLYKKALEYDPANSEIRQRLMIAELLSGNFEAGAKIADSMKDDTSVERVTTIVRGLDAIKDKEFTKAEKILKYTGPNDLDRMVNTLLTAWARAGSGKPKEALALVNNMKGPGWISIFQKYNAAAIALVSGNTEAARKSLNEAVTDREGGATASDTYMRAVMALARLEASAGNKQKALDAIAVGDTFAPNYAPLKALREAIEKGEKPEQQITNAVEGAASVMFSIAGALNREGAEEIVTLYLQTSRALDPKSPDTLILLGGLAEAMKQPERAITFYREVPKDSPMHRISELQLGLTLAQTGKVEESRKHLLSLLESDPKDIRSYLAYGSVLSDAKDYKAMAENYDKAVEVIGAVPQKSDWSVFFQRGIAYERLKQWDKAEPNFKRALELNPEQPQVLNYLGYSWVDKGINLDEGMKMISRAVELRPNDGYIVDSLGWAHYRLGDFDQSVTELERAIELKAGDPTINDHLGDAYWRVGRKIEAVYQWNRALIGDNDDVDKAKVKEKIANGLPPVEKDAENTAKKDVAPQPPAPPAPATPTPDKKS”, the protein production was “failed”. For “MVSRDFDRDKRLLTARQFSAVFDSPTGKVPGKHVLLLARENGLDHPRLGLVIGKKNVKLAVQRNRLKRLIRESFRHNQETLAGWDIVVIARKGLGELENPELHQQFGKLWKRLLRNRPRTESPADAPGVAD”, the protein production was “not failed”. For “MVSSVLEVSHVFCCPNRVRGALSWNTGPGGLLAFGTSCSVVLYDPQKKVVITNLNGHTARVNCLQWIRTEDGSPSNELVSGGSENRVIHWELENNQVLKSVRLQGHEGPVCAVHAIYQSGPSEGEQHALIASAASDSTVRIWSKKGSEVKYLQTLSFRDGFVLSVCLAILPGTNVPVLACGDDDCRIHLYIQQDDQFQKALSLCGHEDWIRGVEWATFGRDLFLASCSQDCLIRIWRLYMKPASFETKDGSLRLKENTFTIKDGGVRTTVAVTLETVLAGHENWVNAVHWQPSFYKDGVLQQPVRLLSASMDKTMILWAPDEESGVWLEQVRVGEVGGNTLGFYDCQFGENGTMIIAHAFHGALHLWKQSTVNPRQWAPEIVISGHFDGVQDLMWDPEGEFIITTSTDQTTRLFAPWKKKDQKDRSQVTWHEIARPQIHGYNIKCLAMIDRFQFVSGADEKVLRVFSAPRNFVENFSVISRQSLSHMLCDDQDLPEGATVPALGLSNKALFQGDIASQPFEEDELISPAFGSPQVTFQPAVLNEPPTEDHLLQNTLWPEIQKLYGHGYEIVCVACNNSKTLLASACKASQKEHAAIILWSTASWKQVQSLAFHTLTVTQMTFSPDDKFLLAVSRDRTWSLWKRQDATSSEFDPFFSLFAFTNKITSVHSRIIWSCDWSPDNKYFFTGSRDKKVVVWGECKSSHNPMEHPIRPCSSILDVGSSVTAVSVCPVLNPAQRYIVAIGLESGKICIYSWNKTNQEINDWTSCVETNPSQSHSLGIRRLCWKSCSDDDDDDDDDDTEQSEEGPEWLHFASCGEDHTVKIYRVNRRAL”, the protein production was “failed”. For “MVSTRTHANGPADAGRTRLLFAAEIFPMNVFSRYLIRHLFLGFAAAAGLLLPLFTTFNLINELDDVSPGGYRWTQAVLVVLMTLPRTLVELSPFIALLGGIVGLGQLSKNSELTAIRSMGFSIFRIALVALVAGILWTVSLGAIDEWVASPLQQQALQIKSTATALGEDDDITGNMLWARRGNEFVTVKSLNEQGQPVGVEIFHYRDDLSLESYIYARSATIEDDKTWILHGVNHKKWLNGKETLETLDNLAWQSAFTSMDLEELSMPGNTFSVRQLNHYIHYLQETGQPSSEYRLALWEKLGQPILTLAMILLAVPFTFSAPRSPGMGSRLAVGVIVGLLTWISYQIMVNLGLLFALSAPVTALGLPIAFVLVALSLVYWYDRQH”, the protein production was “failed”. In the case of “MVTALARPEQTMQELAFRTLLYRYFFFDWLFKDASRGDLRERSAAWRFNQAHAHWLLTYLRRWVWCGALFCLLGGSIELMLSAPVLSAFFYVPGVLSVPINVVICVLWVGLKTLPGPM”, the protein production is reported as “failed”. For “MVTIKEYSVPQSLEEAYKILISKKNNVILGGCGFIKLSNKNIGTAIDLKDINLNYIKEDEKNILIGADTSLRSLEIDKTIKNYCSGILSSAVSNIVGVQFRQGARIGASVFSKYGFSDLIPALLVVGAKVRLYNKGILELSEFLDSELSRDILVEVILPKKDAIAVFDSIRKCTGDFSVLNSAMLKENDTYKIAIGARPQKARLALEASNILNKEKDIDKASIVASKELTYGSNMRASKEYRKDMASALVKRMYNAIEEGMYND”, the protein production was “failed”. For “MVTIPIFLAIIGATMMVVVWSAKQTKSAADFYTAGGGITGTQNGWAIAGDYMSAASFLGISGIISLYGYDGFMYSVGWLVAYITVLLIVAEPCRNAGKFTLGDILSFRTEPKSVRAAAAISTVAVSTFYLTAQMVGAGKLMQLLLGIPYKTAVIGVGILMVGYVVFGGMTATTWVQIIKAGLLMSGAALLSVLVGLKSGMSPFQFFNDIATSPNIIEHVQKVVLKDPVAVAGFDYGQRFLEPGLFLKNPLDQISLGMALVLGTAGMPHILMRFFTVPTAQAARKSVIIAMFIIGSFYILTTLLGFGAAIHVTPQSIMNVDKGGNMAAMMLAQQLGGDIHPFLGDLLLAFLCAVAFATILAVVSGLVLAASAAIAHDIYVNVIKGGHADQHEQVKAARITSFVVGACGIAIGIAAEKQNVAHLVALAFAVAASGNLPVVVLSLFWKKFNTAGVIAGLVTGTVVSIALVMVSPNMTYPKKVAEDAQKVVVKLEEKQAGGAVLTEKEMKDLGKAKADYEKNKDGKSFLGLDKPLFALKNPGVVSIPLGFIAAVIAALAFPSRRSEEMFDELYVRQNTGIGIAKAVDH”, the protein production was “failed”. In the case of “MVTPIAVVGPTASGKSALGIALAHKLDGEVVNVDSMQLYKGMDIGTAKLTVEEREGIAHHQLDVWDVTETASVARFQSDAVADVEDIMSRGKTPILVGGSMLYVQSLVDDWQFPPTDSAVRARFEARLADIGVEALHAELTQLDPEAAAVIESNDPRRTVRALEVIELTGQPFQASQPPKDAPPRWGTRIIGLKTTPEWLNPRIEQRTARMFEQGFVAEVEHLVQQGLIADSTAGRAIGYSQVLAAMAGEMTWEDAFERTVTGTRRYVRRQRSWFNRDHRVSWVDASGDPTAQALEILGLQLEHHHHHH”, the protein production is reported as “not failed”. For “MVTPSLRLVFVKGPREGDALDYKPGSTIRVGRIVRGNEIAIKDAGISTKHLRIESDSGNWVIQDLGSSNGTLLNSNALDPETSVNLGDGDVIKLGEYTSILVNFV”, the protein production was “not failed”.
